# Measured values: article PMC3089553 (The Journal of Biological Chemistry, 2011)
# B1: CDC5L NLS3 peptide (peptide)
# peptide: KKRKRKR
# Target: T1, His-CTNNBL1(Δ1–76) (UniProt Q8WYA6 77-563)
# T1 sequence (looked up): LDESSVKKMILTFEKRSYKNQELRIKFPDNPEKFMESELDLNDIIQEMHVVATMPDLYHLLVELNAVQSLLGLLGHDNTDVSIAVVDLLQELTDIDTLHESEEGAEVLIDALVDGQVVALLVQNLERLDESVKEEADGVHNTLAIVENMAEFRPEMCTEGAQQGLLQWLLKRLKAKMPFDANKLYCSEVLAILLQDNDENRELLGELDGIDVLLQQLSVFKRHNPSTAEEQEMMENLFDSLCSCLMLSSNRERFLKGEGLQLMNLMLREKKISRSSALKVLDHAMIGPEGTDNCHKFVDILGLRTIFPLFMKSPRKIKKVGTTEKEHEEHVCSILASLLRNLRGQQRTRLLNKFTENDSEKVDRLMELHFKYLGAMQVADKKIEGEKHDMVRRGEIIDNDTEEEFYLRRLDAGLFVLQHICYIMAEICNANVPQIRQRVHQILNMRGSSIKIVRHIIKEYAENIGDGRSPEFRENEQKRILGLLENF
# Test: ITC
binder,measurement,value
B1,dH1 (site 1),-6.19 ± 0.46 kJ/mol
same,dH2 (site 2),-13.7 ± 0.628 kJ/mol
